Data taken from publication PMC11250841.

Legend:
[1] = molecular target: T1, Thymic stromal lymphopoietin receptor (TSLPR) (human (endogenous in primary keratinocytes)) (UniProt Q9HC73)
T1 sequence: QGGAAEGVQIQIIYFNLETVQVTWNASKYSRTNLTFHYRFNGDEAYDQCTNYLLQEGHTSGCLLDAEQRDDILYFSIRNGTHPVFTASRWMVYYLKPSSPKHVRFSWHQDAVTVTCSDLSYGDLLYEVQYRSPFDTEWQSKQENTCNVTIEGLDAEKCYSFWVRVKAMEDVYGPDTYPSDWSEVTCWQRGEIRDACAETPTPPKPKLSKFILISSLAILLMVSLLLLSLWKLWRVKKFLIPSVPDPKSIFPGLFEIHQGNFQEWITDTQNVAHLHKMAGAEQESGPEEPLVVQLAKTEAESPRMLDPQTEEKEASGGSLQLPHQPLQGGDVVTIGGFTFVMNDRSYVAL

[2] = molecular target: T1, Thymic stromal lymphopoietin receptor (TSLPR) (human (endogenous in primary keratinocytes)); remark: listed apart in the source

“Thymic stromal lymphopoietin (TSLP), human recombinant (from UniProt Q969D9 29-159) (ligand)” was tested. Which inhibition by the small molecule BP79 of TSLP-induced IL-4 release from HuT78 cells (ELISA, 36 h), concentration series up to 20 µM [1] did it give?
Its inhibition by the small molecule BP79 of TSLP-induced IL-4 release from HuT78 cells (ELISA, 36 h), concentration series up to 20 µM is 60%.

What about the inhibition by the small molecule BP79 of TSLP-induced IL-13 release from HuT78 cells (ELISA, 36 h), concentration series up to 20 µM [1] of the same substance?
The inhibition by the small molecule BP79 of TSLP-induced IL-13 release from HuT78 cells (ELISA, 36 h), concentration series up to 20 µM was 80%.

What about the inhibition by the small molecule BP79 of TSLP-induced IL-4/IL-13 expression in primary human CD4+ T cells (ELISA, 36 h), dose-response, at 10 µM and 20 µM [2] of the same substance?
Its inhibition by the small molecule BP79 of TSLP-induced IL-4/IL-13 expression in primary human CD4+ T cells (ELISA, 36 h), dose-response, at 10 µM and 20 µM is over 80%.
